Data on 13 substances can be found in patent US20140357838A1, “N-Terminally Modified Insulin Derivatives” (Novo Nordisk A/S, priority 2011, published 2014).

A short description of data set [1]: Chemical stability of insulin derivatives in 2 mM phosphate (SEC-HPLC and RP-HPLC). Format: physicochemical. Particulars: 4 weeks 37° C. minus 5° C. start sample; for Chemical degradation (%) (4 weeks 37° C.- 0 weeks 5° C.): pH 7.5, RP-HPLC; for HMWP Formation (%) (4 weeks 37° C.- 0 weeks 5° C.): pH 7.5, SEC-HPLC. The procedure: Chemical stability of an insulin derivative is assessed after incubating insulin derivative in 2 mM phosphate, pH=7.5 at 37° C. for up to 8 weeks. Formation of high molecular weight products (HMWP) is determined by SEC HPLC analysis after 0, 2, 4 and optionally 8 weeks. The results of the SEC method are given as a difference between HMWP formation at 37° C. and 5° C. start sample as a percentage of total absorbance at 215 nm. Chemical degradation products are determined by RP HPLC analysis after 0, 2, 4 and optionally 8 weeks. The results of the RP method are given as a difference between chemical degradation observed at 37° C. and 5° C. start sample as a percentage of total absorbance at 215 nm.
• Solvent: 500 mM NaCl, 10 mM NaH2PO4, 5 mM H3PO4, 50% (v/v) 2-propanol • Flow: 0.5 ml/min • Run time: 30 min • UV Detection: 215 nm • Column: Insulin HMWP column from Waters 7.8×300 mm • Temperature: 50° C.
• Solvent A: 0.09M phosphate buffer pH 3.6 (di-ammoniumhydrogenphosphate), 10% MeCN (v/v) • Solvent B: 80% MeCN (v/v %) • Flow: 0.3 ml/min • Runtime: 33 min • UV Detection: 215 nm • Column: Waters Acquity BEH130 C18 Column 1.7 μm, 150×2.1 mm • Temperature: 50° C. • Gradient: […]
On the technique in general: Size exclusion chromatography separates by hydrodynamic size, large species first.

The target of data set [2] is T1, human insulin receptor (Homo sapiens, UniProt P06213). The data set is described as follows: Insulin receptor affinity, SPA antibody capture assay (0% HSA). In kind it is binding. As to conditions: relative to the affinity of human insulin. As to the method: (§1) SPA-PVT antibody-binding beads, anti-mouse reagent (Amersham Bio-sciences, Cat No. PRNQ0017) are mixed with 25 ml of binding buffer (100 mM HEPES pH 7.8; 100 mM sodium chloride, 10 mM MgSO4, 0.025% Tween-20). […] A total of 100 μl reagent mix is then added to each well in the Packard Optiplate and a dilution series of the N-terminally modified insulin is made in the Optiplate from appropriate samples. The samples are then incubated for 16 hours while gently shaken. The phases are the then separated by centrifugation for 1 min and the plates counted in a Topcounter.

Data set [3] concerns the target T1, human insulin receptor. The data set is described as follows: Insulin receptor affinity, SPA assay with […] HSA in binding buffer. Particulars: relative to the affinity of human insulin. The procedure:
as §1

Data set [4] can be described thus: Hydrophobicity by isocratic reverse phase HPLC. Particulars: k'rel, isocratic RP-HPLC, pH 7.3, human insulin = 1. Format: physicochemical. As to the method: The hydrophobicity of an N-terminally modified insulin is found by reverse phase HPLC run under isocratic conditions. […] The hydrophobicity, k′rel, is calculated as: k′relderiv=((tderiv−t0)(tref−t0)*k′relref. Using HI as reference: k′relref=k′relHI=1. The void time of the HPLC system, t0, is determined by injecting 5 μl of 0.1 mM NaNO3. Running conditions:
Column: Lichrosorb RP-C18, 5 μm, 4×250 mm
Buffer A: 0.1 M natrium phosphate pH 7.3, 10 vol % CH3CN
After running an initial gradient, the isocratic level for running the derivative and reference (for example HI) is chosen, and the elution times of the derivative and reference under isocratic conditions are used in the above equation to calculate k′relderiv.

Starred links: 1 amine or outer side, 2 acyl side, 3 side chain; linkers in the order of their positions; H or OH if unused. Positions of bridges follow the written chain, without caps; N, C: chain ends. Groups on a side chain read outwards from the residue. Chains are numbered I, II in the order given. No end group written: not given here. *: point of attachment. Phe(Nα-CONH2) = NC(=O)N[C@@H](Cc1ccccc1)C(=O)*; C20 diacid = O=C(O)CCCCCCCCCCCCCCCCCCC(=O)*; C18 diacid = O=C(O)CCCCCCCCCCCCCCCCC(=O)*; NMe2Phe = CN(C)[C@@H](Cc1ccccc1)C(=O)*; γGlu = O=C(O)[C@H](CCC(=O)[*:2])N[*:1]; Hydantoyl = NC(=O)NCC(=O)*; AEEA = NCCOCCOCC(=O)O; Me2Gly = CN(C)CC(=O)*

T1 sequence (P06213 28-746 isoform P06213-2 limits assumed): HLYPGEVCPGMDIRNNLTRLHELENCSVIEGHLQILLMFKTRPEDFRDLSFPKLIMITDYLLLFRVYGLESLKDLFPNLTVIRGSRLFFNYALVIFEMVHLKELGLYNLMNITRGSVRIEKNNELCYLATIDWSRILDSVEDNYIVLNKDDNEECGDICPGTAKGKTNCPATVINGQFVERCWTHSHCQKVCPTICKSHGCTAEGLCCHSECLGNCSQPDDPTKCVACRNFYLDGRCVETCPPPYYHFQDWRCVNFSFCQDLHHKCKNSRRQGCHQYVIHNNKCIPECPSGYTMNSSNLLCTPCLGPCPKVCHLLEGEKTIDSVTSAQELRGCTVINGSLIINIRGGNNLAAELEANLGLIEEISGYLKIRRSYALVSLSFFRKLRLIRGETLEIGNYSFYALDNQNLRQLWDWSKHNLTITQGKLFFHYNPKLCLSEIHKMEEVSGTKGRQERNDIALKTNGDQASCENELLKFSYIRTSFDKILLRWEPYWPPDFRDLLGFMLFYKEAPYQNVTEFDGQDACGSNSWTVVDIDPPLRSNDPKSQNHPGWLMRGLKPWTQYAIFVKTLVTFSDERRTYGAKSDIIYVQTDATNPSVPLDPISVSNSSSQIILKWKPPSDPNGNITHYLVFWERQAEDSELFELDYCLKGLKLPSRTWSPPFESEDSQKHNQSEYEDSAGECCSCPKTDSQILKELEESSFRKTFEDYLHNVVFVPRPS
T1 sequence (P06213 763-1382 partner limits assumed): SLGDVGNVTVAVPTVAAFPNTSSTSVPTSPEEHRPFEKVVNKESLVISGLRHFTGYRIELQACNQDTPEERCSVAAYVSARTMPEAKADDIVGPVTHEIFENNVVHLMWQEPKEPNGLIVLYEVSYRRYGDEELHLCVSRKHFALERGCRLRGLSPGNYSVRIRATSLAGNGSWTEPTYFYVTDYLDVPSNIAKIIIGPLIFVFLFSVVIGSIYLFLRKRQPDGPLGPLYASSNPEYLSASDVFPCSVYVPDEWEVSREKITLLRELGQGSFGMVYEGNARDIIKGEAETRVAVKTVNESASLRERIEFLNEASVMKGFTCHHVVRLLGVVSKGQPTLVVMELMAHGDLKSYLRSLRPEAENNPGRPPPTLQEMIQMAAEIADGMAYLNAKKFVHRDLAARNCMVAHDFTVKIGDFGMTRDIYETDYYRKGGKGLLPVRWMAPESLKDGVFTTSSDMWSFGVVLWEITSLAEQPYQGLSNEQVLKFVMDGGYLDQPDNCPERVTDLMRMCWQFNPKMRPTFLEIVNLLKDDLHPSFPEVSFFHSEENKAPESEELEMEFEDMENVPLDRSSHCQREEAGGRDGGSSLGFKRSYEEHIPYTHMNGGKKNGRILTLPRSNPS

As for “I: Me2Gly-VCQHLCGSHLVEALHLVCGERGFHYTPK([γGlu-C18 diacid]) / II: Me2Gly-IVEQCCTSCCSLEQLENYCN (disulfide I:2-II:9, I:6-II:6, I:18-II:19, II:5-II:10) [Example 8, A1(N^α,N^α-Dimethyl), A10C, A14E, B1G(N^α,N^α-dimethyl), B3C, B16H, B25H, B29K(N^εoctadecanedioyl-gGlu), desB30 Human Insulin]”, in data set [1], the “Chemical degradation (%) (4 weeks 37° C.- 0 weeks 5° C.)” value (shortened to “Chemical degradation (%)”) came to 66.4% and the “HMWP Formation (%) (4 weeks 37° C.- 0 weeks 5° C.)” value (shortened to “HMWP Formation (%)”) came out at 54.5%.

With “I: Me2Gly-VCQHLCGSHLVEALYLVCGERGFFYPK([AEEA-AEEA-γGlu-C18 diacid]) / II: Me2Gly-IVEQCCTSCCSLEQLENYCN (disulfide I:2-II:9, I:6-II:6, I:18-II:19, II:5-II:10) [Example 14, A1(N^α,N^α-Dimethyl), A10C, A14E, B1G(N^α,N^α-dimethyl), B3C, desB27, B29K(N^εoctadecanedioyl-gGlu-2×OEG), desB30 Human Insulin]”, the “HMWP Formation (%)” value in data set [1] is 0.0%.

Consider “I: Me2Gly-VCQHLCGSHLVEALYLVCGERGFFYPK([γGlu-C18 diacid]) / II: Me2Gly-IVEQCCTSCCSLEQLENYCN (disulfide I:2-II:9, I:6-II:6, I:18-II:19, II:5-II:10) [Example 9, A1(N^α,N^α-Dimethyl), A10C, A14E, B1G(N^α,N^α-dimethyl), B3C, desB27, B29K(N^εoctadecanedioyl-gGlu), desB30 Human Insulin]”, for which the “Chemical degradation (%)” value in data set [1] is 5.7%.

For the substance “I: Me2Gly-VCQHLCGSHLVEALYLVCGERGFHYPK([AEEA-AEEA-γGlu-C18 diacid]) / II: Me2Gly-IVEQCCTSCCSLEQLENYCN (disulfide I:2-II:9, I:6-II:6, I:18-II:19, II:5-II:10) [Example 15, A1(N^α,N^α-Dimethyl), A10C, A14E, B1G(N^α,N^α-dimethyl), B3C, B25H, desB27, B29K(N^εoctadecanedioyl-gGlu-2×OEG), desB30 Human Insulin]”, in data set [1], the “Chemical degradation (%)” value was found to be 10.4% and the “HMWP Formation (%)” value is recorded as 1.2%.

Consider “I: Me2Gly-VCQHLCGSHLVEALYLVCGERGFHYPK([γGlu-C18 diacid]) / II: Me2Gly-IVEQCCTSCCSLEQLENYCN (disulfide I:2-II:9, I:6-II:6, I:18-II:19, II:5-II:10) [Example 7, A1(N^α,N^α-Dimethyl), A10C, A14E, B1G(N^α,N^α-dimethyl), B3C, B25H, desB27, B29K(N^εoctadecanedioyl-gGlu), desB30 Human Insulin]”, for which, in data set [1], the “Chemical degradation (%)” value worked out at 0.6% and the “HMWP Formation (%)” value amounted to 0.4%.

On to “I: Me2Gly-VCQHLCGSHLVEALYLVCGERGFHYTPK([AEEA-AEEA-γGlu-C18 diacid]) / II: Me2Gly-IVEQCCTSCCSLEQLENYCN (disulfide I:2-II:9, I:6-II:6, I:18-II:19, II:5-II:10) [Example 16, A1(N^α,N^α-Dimethyl), A10C, A14E, B1G(N^α,N^α-dimethyl), B3C, B25H, B29K(N^εoctadecanedioyl-gGlu-2×OEG), desB30 Human Insulin]”, for which, in data set [1], the “Chemical degradation (%)” value came out at 58.0% and the “HMWP Formation (%)” value was determined as 42.7%.

Consider “I: NMe2Phe-VCQHLCGSHLVEALHLVCGERGFHYTPK([AEEA-AEEA-γGlu-C18 diacid]) / II: Me2Gly-IVEQCCTSCCSLEQLENYCN (disulfide I:2-II:9, I:6-II:6, I:18-II:19, II:5-II:10) [Example 13, A1(N^α,N^α-Dimethyl), A10C, A14E, B1(N^α,N^α-dimethyl), B3C, B16H, B25H, B29K(N^εoctadecanedioyl-gGlu-2×OEG), desB30 Human Insulin]”, for which, in data set [1], the “Chemical degradation (%)” value stood at 9.8%.

As for “I: NMe2Phe-VCQHLCGSHLVEALHLVCGERGFHYTPK([γGlu-C18 diacid]) / II: Me2Gly-IVEQCCTSCCSLEQLENYCN (disulfide I:2-II:9, I:6-II:6, I:18-II:19, II:5-II:10) [Example 4, A1(N^α,N^α-Dimethyl), A10C, A14E, B1(N^α,N^α-dimethyl), B3C, B16H, B25H, B29K(N^εoctadecanedioyl-gGlu), desB30 Human Insulin]”, in data set [1], the “Chemical degradation (%)” value is 8.7% and the “HMWP Formation (%)” value was −0.4%.

For “I: NMe2Phe-VCQHLCGSHLVEALYLVCGERGFHYPK([γGlu-C20 diacid]) / II: Me2Gly-IVEQCCTSCCSLEQLENYCN (disulfide I:2-II:9, I:6-II:6, I:18-II:19, II:5-II:10) [Example 18, A1(N^α,N^α-Dimethyl), A10C, A14E, B1(N^α,N^α-dimethyl), B3C, B25H, desB27, B29K(N^εeicosanedioyl-gGlu), desB30 Human Insulin]”, on human insulin receptor [2], the “Relative IR-A affinity (@ 0% HSA) (%)” value turned out to be 0.72%. Besides, the “Relative IR-A affinity (@ […] HSA) (%)e” value at human insulin receptor [3] is recorded as 0.02%. Besides, the “Hydrophobicity rel. to human insulin” value in data set [4] was 0.12. In data set [1], the “Chemical degradation (%)” value was found to be 4.2% and the “HMWP Formation (%)” value was determined as 5.1%.

With “I: NMe2Phe-VCQHLCGSHLVEALYLVCGERGFHYTPK([AEEA-AEEA-γGlu-C18 diacid]) / II: Me2Gly-IVEQCCTSCCSLEQLENYCN (disulfide I:2-II:9, I:6-II:6, I:18-II:19, II:5-II:10) [Example 12, A1(N^α,N^α-Dimethyl), A10C, A14E, B1(N^α,N^α-dimethyl), B3C, B25H, B29K(N^εoctadecanedioyl-gGlu-2×OEG), desB30 Human Insulin]”, in data set [4], the “Hydrophobicity rel. to human insulin” value came out at 0.077.

Regarding “I: NMe2Phe-VCQHLCGSHLVEALYLVCGERGFHYTPK([γGlu-C18 diacid]) / II: Me2Gly-IVEQCCTSCCSLEQLENYCN (disulfide I:2-II:9, I:6-II:6, I:18-II:19, II:5-II:10) [Example 3, A1(N^α,N^α-Dimethyl), A10C, A14E, B1(N^α,N^α-dimethyl), B3C, B25H, B29K(N^εoctadecanedioyl-gGlu), desB30 Human Insulin]”, the “Hydrophobicity rel. to human insulin” value in data set [4] was 0.065. Further, the “Chemical degradation (%)” value in data set [1] was found to be 3.4%.

In the case of “I: NMe2Phe-VCQHLCGSHLVEALYLVCGERGFHYTPK([γGlu-C20 diacid]) / II: Me2Gly-IVEQCCTSCCSLEQLENYCN (disulfide I:2-II:9, I:6-II:6, I:18-II:19, II:5-II:10) [Example 19, A1(N^α,N^α-Dimethyl), A10C, A14E, B1(N^α,N^α-dimethyl), B3C, B25H, B29K(N^εeicosanedioyl-gGlu), desB30 Human Insulin]”, in data set [1], the “Chemical degradation (%)” value is reported as 11.7% and the “HMWP Formation (%)” value came to 34.6%.

In the case of “I: {Phe(Nα-CONH2)}-VCQHLCGSHLVEALYLVCGERGFFYPK([γGlu-C18 diacid]) / II: Hydantoyl-IVEQCCTSCCSLEQLENYCN (disulfide I:2-II:9, I:6-II:6, I:18-II:19, II:5-II:10) [Example 36, A1(N^α-Carbamoyl), A10C, A14E, B1(N^α-carbamoyl), B3C, desB27, B29K(N^εoctadecanedioyl-gGlu), desB30 Human Insulin]”, the “Relative IR-A affinity (@ 0% HSA) (%)” value on human insulin receptor [2] turned out to be 0.7%. Also, at human insulin receptor [3], the “Relative IR-A affinity (@ […] HSA) (%)e” value was determined as 0.01%.
